Measured values: the supplement of paper PMC9170038

Tested on: K4 kissing-loop RNA reporter
Experiment: apparent KD of K4 kissing-loop reporter; higher = weaker reporter binding
Settings: Eterna round: R107
Method: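 RNA-MaP round R107: designed RNA switches with theophylline, tryptophan, arginine or FMN aptamers are transcribed on-chip within common flanks. They are titrated with a labelled K4 kissing-loop RNA reporter in RNA-MaP buffer (100 mM Tris pH 7.5, 80 mM KCl, 4 mM MgCl2), without ligand or with the indicated ligand. Median apparent KD per design.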

[1] = input ligand: theophylline 20 uM
[2] = input ligand: tryptophan 2.4 mM
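Also: bound reporter read as fluorescence of individual clusters on recovered sequencing chips by microscopy, with normalized cluster intensities fitted with a binding model.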

| Sequence | apparent KD of K4 kissing-loop reporter (input ligand: FMN 200 uM) [µM] | apparent KD of K4 kissing-loop reporter (input ligand: arginine 13.2 mM) [µM] | apparent KD of K4 kissing-loop reporter (input ligand: none) [µM] | apparent KD of K4 kissing-loop reporter [1] [µM] | apparent KD of K4 kissing-loop reporter [2] [µM] |
| --- | --- | --- | --- | --- | --- |
| AGAGAUAUAUGAGGAUAUGAGAUAGUUAAUGAGUGAGUUAUAGUGUAGUUUGGUUAGUGAUGUUAUUUAGAAGGCGUGAGUGAUG [reefmullin] | 0.14 | 0.0767 | 0.131 | 0.107 | 0.0833 |
| AUGACGGGUAGUGAUGUUAUCCACGAUGGGAAGGAUAUCAACCGUGUGAGAAGGUCCUUAUCGGUGCGGCACAUGCAGGUACUAC [theeternabot_sameState_KL_FMN_A_41] | 0.215 | 0.264 | 0.346 | 0.452 | 0.268 |
| CGUGAAUGUCGUCAGUCAUCGGUCCAUGCACGAGGACCGGUACGGCCGCCACUCGAGCGUGGCAGUGAUGUUGCCAGCGCACUAA [KL-XTryp-A13] | 0.138 | 0.115 | 0.128 | 0.137 | 0.315 |
| UUGUAUACUUUUGUGUGCGAUGUGUAGCCGCGAGGACCGGUACGGCCGCCACUCGCUGAGAGUGAUGUUCUCUGGGCUAUAUAUC [Skye_SS_TA3] | 1.1 | 0.924 | 1.7 | 0.794 | 0.234 |
| GGGAGGAGUGGUGUUGAUUAAGAAGCGGAAGGAGCGCCGAAGAAGGCAGGUAGGUCGCCGGAAUAUAGUGAUGUUAUAUAGAGGG [ExArg.E] | 0.529 | 0.323 | 0.23 | 0.406 | 0.252 |
| GUUGAUCAUGGAAGGAGCGCCCAUUGUCGACACGAGUGAUGUUCGUGUCGUUAAUUAUGAGGGCAGGUAGGUCGCCGUGUGCUUU [Soqugebi] | 0.144 | 0.103 | 0.13 | 0.115 | 0.128 |
| GGCGGCCGCGCGAAAGCGCGGCCGGCCGAUACCAGCGCGCCGGCGCGCCCUUGGCAGCGGCGCCGAGUGAUGUUCGGCCUGCCGU [#2 Same State - Theophylline A Attempt #12 (HarryS)] | 0.144 | 0.101 | 0.112 | 0.134 | 0.125 |
| UACUAUAUUCUGUCGUUUUUAUUAGUUUGUCAGGAUAUCGUUUAUUCGAGAAGGGACACUAUCUAGUGAUGUUAGAUAUUUCUUU [JR_Nu3_ExcFMNA_Sub030] | 0.0779 | 0.102 | 0.0927 | 0.0932 | 0.0729 |
| UGGGUGUAGUGAUGUUAUAUAGAGAGUGAUACCAGUUUAGAGAAGAACCCUUGGCAGCAUAGAAGAGUAUCAUUGGAGAAGAAUG [ExTheophyl.As] | 0.459 | 0.348 | 0.422 | 0.378 | 0.339 |
| UGGAGUUGACGAAAAGUCAACUCCUGGGAAGGAGCGGACGAAAGUCCAGGUAGGUCGCCCACUACCAGUGAUGUUGGUACCUAAA | 0.274 | 0.32 | 0.257 | 0.307 | 0.206 |
| ACCACCUGUCUGGAUACCAGUCUUCGAGUGAUGUUGGAAGUUAGCCGGUUCUAUUACCUAGACCCUUGGCAGCCAGGAAUUAUAG [theeternabot_exclusion_KL_Theo_B_17] | 1.14 | 0.861 | 1.5 | 1.13 | 0.872 |
| GGAUGGUAGGCGGCCGCCACUAAAACUGAACACAUACAAGCCAGUGAUGUUGGUAUGAUGGAGUAUAGGACCGGGCCUAGAUAGA [Exclusion - Tryptophan B (Freestyle 4)] | 0.452 | 0.367 | 0.472 | 0.42 | 0.421 |
| UGACUGGAUGGAAGGAGCGCUAAACUCCUAGUGAUGUUAGGGAUAUGAGGCAAAGCCUUGAAGCAGGUAGGUCGCCAUCUAGUCU [FiskerMod 26 - Jieux - Same State - Arginine B] | 0.141 | 0.126 | 0.146 | 0.146 | 0.142 |
| AAUUCAGUGAUGUUGGAAGGCAGGCGGGAUACCAGCGGAGAAUAACGCCCUUGGCAGCCCAUAUAUCCCAAAUAGAUAAUAGUUC [Same State - Theophylline A (Freestyle 3)] | 0.386 | 0.317 | 0.41 | 0.405 | 0.376 |
| CGAGUGAUGUUCGUUUUUUUAUUUUUUUGACAGGAUAUGCGGAAACGCAGAAGGGUCACCUUUGAGUUAAAAGAAUUUAAAUUAU [Ex FMN A 23] | 0.278 | 0.208 | 0.254 | 0.213 | 0.193 |
| UGAUACCAGGCGGCCGCCACUCCUGCAGGUCAAAGACCUGUGAAGCUGGUUCUCCAGUGAUGUUGGAGGACCGGGCCUGGUAUCU [FiskerMod 27 - Jieux - Exclusion - Tryptophan B] | 0.202 | 0.176 | 0.185 | 0.179 | 0.356 |

| Sequence | apparent KD of K4 kissing-loop reporter (input ligand: FMN 200 uM) [µM] | apparent KD of K4 kissing-loop reporter (input ligand: arginine 13.2 mM) [µM] | apparent KD of K4 kissing-loop reporter (input ligand: none) [µM] | apparent KD of K4 kissing-loop reporter [1] [µM] | apparent KD of K4 kissing-loop reporter [2] [µM] |
| --- | --- | --- | --- | --- | --- |
| GGAUAGGAUAGAGGAUAUGGAAAACACAAAAGUGACUUGUUGUGUUUAUCCAUAGGGAGUGAUGUUCCAGAAGGCUGUCCUAUCG [MatMod 23 - Jieux - Exclusion - FMN B] | 0.229 | 0.169 | 0.169 | 0.164 | 0.136 |
| AGGAUAUAGUGAUGUUAUAUAAGAAGAAAACGAGGACCGGUACGGCCGCCACUCGAAGCGGCUACUAAGAGGGAAAGAAGAGGAA [ExTryptoA.A] | 0.174 | 0.181 | 0.215 | 0.294 | 0.143 |
| UUGAGCCUGACGGAAGUCAGGCUCUGCGAGCGAGGACCGGUACGGCCGCCACUCGGUGCAGUGAUGUUGCAUGGCCGCAAGGCCG [#2 Exclusion - Tryptophan A Attempt #16 (HarryS)] | 0.311 | 0.29 | 0.352 | 0.311 | 0.42 |
| AAUUUAUUAUCUGAUACCAGACUUUAUCUUGUUUAUAAGUCAAGUGAUGUUUGACUAUUAGUCCCUUGGCAGCAGUAUUUUUUAA [JR_Nu_SSTheophyB_Sub025] | 0.251 | 0.26 | 0.269 | 0.187 | 0.23 |
| UGACUGGACUGAAGGAGCGCUGAACUCCUAGUGAUGUUAGGAAAACGAGACAAAGUCUCGCGGCAGGUAGGUCGCAGUCUAGUCU | 0.13 | 0.0859 | 0.108 | 0.111 | 0.0992 |
| AGACGAGAUGAAGGAUAUGCGGACAAAGUGAUGUUUUGUCCGAAAGUAGGCAGUAAUAUCGAAAAUGCAGAAGGUCAAGAACAUA [theeternabot_exclusion_KL_FMN_B_36] | 0.135 | 0.173 | 0.143 | 0.256 | 0.145 |
| AAGAGAUAGGGAGGAUAUGCCCUAUUGAGAACCGAGUGAUGUUCGGUAGGACAAAUAGUCCACAGGGUAGAAGGCCCACAUCACA [SS FNM B Tesla 2] | 0.191 | 0.213 | 0.244 | 0.476 | 0.267 |
| GUCUGUGUACUAGGAUAUGGUUGCAGGCAGUCAGGUCGCCUUUUCGGCGGCCAGUGAUGUUGGUGGCCAGAAGGAGUACGUGAUG [Raorin] | 0.776 | 0.659 | 0.731 | 0.721 | 0.699 |
| GGAGCCGAUAGUGAUACCAGCCAGUGAUGUUGGCGAAGUCUCAUUUUCGCUCUCGGUAAGGGCCCUUGGCAGCACUUACUCGGAA [Arledied] | 0.105 | 0.094 | 0.102 | 0.0959 | 0.104 |
| UUUGGUUUCUCGGCCGCCACUCGUUGUCUAUCGGCUUCAGGGAUAUAGUGAUGUUAUGUAUAGAAGAGGACCGGGAGAAGGUUCC [ExTryptoB.Dy] | 0.217 | 0.169 | 0.303 | 0.237 | 0.165 |
| CUUAUGGCGUUUGGAAGGAGCGGCUCAUCACGAGGACCGGUACGGCCGCCACUCGAGAGAGCAUAAGAAAGUGAUGUUUUCGGUU [theeternabot_sameState_KL_Trp_A_44] | 0.517 | 0.415 | 0.496 | 0.395 | 0.314 |
| UAAUCUAACGAGAGUGAUGUUCUCGUCACAGAGGAUAUACGAUUUAGUAGAAGGCUGUUGGAUUCGCUUAAUGAUGACUAGAUUA [FMN A SS t1] | 0.242 | 0.196 | 0.223 | 0.232 | 0.205 |
| GGAUAGGAUAGAGGAUAUGGUAUAUGCAAGAAUAACUUGUCAUGUAAAUCCAUGAGGAGUGAUGUUCCAGAAGGCUGUCCUAUCG [MatMod 10 - Jieux - Exclusion - FMN B] | 0.646 | 0.324 | 0.48 | 0.519 | 0.379 |
| AUACGCGAUAGCGUAUAUAACUUUUCAGAAGGAGCGUGGAAGUACACAGGUAGGUCGCUGAAUAUAGGACUAGUGAUGUUAGUUA [JR_Nu_SSArginiA_Sub025] | 0.195 | 0.22 | 0.235 | 0.218 | 0.186 |
| AUGGACUCUUCGGAGUCCGCCUUAAGGGAUACCAGUGAUGUUGGUCACCCUUGGCAGCCUAGAAAGGAAGCCACCAAAGGUGGCA [Omei v1 mod #OpenEnded #Sliding] | 0.105 | 0.114 | 0.128 | 0.16 | 0.101 |
